Source: PMC3299815 (Biochemistry, 2012)

Target: the molecule itself
Assay: SEC

B1: Rv0203-notag (natural protein)
chain: AMAASDPCAASEVARTVGSVAKSMGDYLDSHPETNQVMTAVLQQQVGPGSVASLKAHFEANPKVASDLHALSQPLTDLSTRCSLPISGLQAIGLMQAVQGARR
- stoichiometry N: 2
